Test results: paper PMC11543927, “Subtleties in Clathrin heavy chain binding boxes provide selectivity among adaptor proteins of budding yeast” (Nature Communications, 2024)

Tests used:
[1] = system: Abp1-mTurquoise2 at endocytic sites; assay: Lifetime TIRF microscopy, Abp1+ / Abp1- endocytic events of Ent1/Ent2-mNeonGreen; type: cell-based, Saccharomyces cerevisiae; settings: Supp. Figure 12; Ent1-mNeonGreen in yeast strains with Chc WT or box mutants (Cla, Cla + Arr, Cla + W); Type ABP+; average of single points
Procedure: To determine the effect of mutating the CHC-NTD Clathrin, Arrestin and W-boxes in how endocytosis progresses, cells tagged with Ent1/2p-mNeonGreen, Chc-mScarlet and Abp1-mTurquoise2 were used. Yeast cells previously described were grown overnight at 30 °C with shaking in a 24-well plate using LD(=low-fluorescence SD)-Trp^-, Leu^- medium (yeast nitrogen base without amino acids supplemented with the corresponding DropOut media, Foredium, CYN402). Cells were diluted in fresh medium with a starting OD600nm of 0.1 and allowed to grow at 30 °C with shaking for several hours (4-6hs) until they reached log phase (OD600nm 0.6-1.2). Micro slide 8-well glass bottom plates (Catalog 80807, Ibidi, Gräfelfing, Germany) were treated with 50 µL of a 1 mg/ml concanavalin A (prepared in 10 mM sodium phosphate buffer pH 6, 10 mM CaCl2,1 mM MnCl2, 0.01% NaN3, Catalog C2010, Sigma Aldrich) solution, incubated for 5 min and then washed twice with 50 µL of fresh medium. 50 µL of cell suspension was applied, incubated for 5 min and removed. Then each well was washed twice with 50 µL of fresh medium. Finally, 50 µL of fresh medium was added. […]

[2] = target: T1, Chc-mScarlet Clathrin box mutant (K63E, I87D, Q89A, K98E) (Saccharomyces cerevisiae, UniProt P22137 1-1653, K63E | I87D | Q89A | K98E); assay: FRET or BRET; acceptor photobleaching FRET in living yeast cells at endocytic patches stalled with Latrunculin A, donor mNeonGreen on Ent1/Ent2, acceptor mScarlet on Chc, 21 °C; trimmed mean FRET efficiency; settings: partners not purified
T1 construct: Clathrin heavy chain, Saccharomyces cerevisiae, the ORF of CHC1 fused in the 3' with mScarlet, Clathrin box mutant; also called Cla mutant; source: S. cerevisiae MK100, mutated plasmid pRS315-5'UTR CHC-mScarlet, endogenous CHC1 knocked out, in living cells; not shown: mScarlet, C-terminal, kept
T1 sequence (P22137 whole entry K63E/I87D/Q89A/K98E, the tested form may be a part): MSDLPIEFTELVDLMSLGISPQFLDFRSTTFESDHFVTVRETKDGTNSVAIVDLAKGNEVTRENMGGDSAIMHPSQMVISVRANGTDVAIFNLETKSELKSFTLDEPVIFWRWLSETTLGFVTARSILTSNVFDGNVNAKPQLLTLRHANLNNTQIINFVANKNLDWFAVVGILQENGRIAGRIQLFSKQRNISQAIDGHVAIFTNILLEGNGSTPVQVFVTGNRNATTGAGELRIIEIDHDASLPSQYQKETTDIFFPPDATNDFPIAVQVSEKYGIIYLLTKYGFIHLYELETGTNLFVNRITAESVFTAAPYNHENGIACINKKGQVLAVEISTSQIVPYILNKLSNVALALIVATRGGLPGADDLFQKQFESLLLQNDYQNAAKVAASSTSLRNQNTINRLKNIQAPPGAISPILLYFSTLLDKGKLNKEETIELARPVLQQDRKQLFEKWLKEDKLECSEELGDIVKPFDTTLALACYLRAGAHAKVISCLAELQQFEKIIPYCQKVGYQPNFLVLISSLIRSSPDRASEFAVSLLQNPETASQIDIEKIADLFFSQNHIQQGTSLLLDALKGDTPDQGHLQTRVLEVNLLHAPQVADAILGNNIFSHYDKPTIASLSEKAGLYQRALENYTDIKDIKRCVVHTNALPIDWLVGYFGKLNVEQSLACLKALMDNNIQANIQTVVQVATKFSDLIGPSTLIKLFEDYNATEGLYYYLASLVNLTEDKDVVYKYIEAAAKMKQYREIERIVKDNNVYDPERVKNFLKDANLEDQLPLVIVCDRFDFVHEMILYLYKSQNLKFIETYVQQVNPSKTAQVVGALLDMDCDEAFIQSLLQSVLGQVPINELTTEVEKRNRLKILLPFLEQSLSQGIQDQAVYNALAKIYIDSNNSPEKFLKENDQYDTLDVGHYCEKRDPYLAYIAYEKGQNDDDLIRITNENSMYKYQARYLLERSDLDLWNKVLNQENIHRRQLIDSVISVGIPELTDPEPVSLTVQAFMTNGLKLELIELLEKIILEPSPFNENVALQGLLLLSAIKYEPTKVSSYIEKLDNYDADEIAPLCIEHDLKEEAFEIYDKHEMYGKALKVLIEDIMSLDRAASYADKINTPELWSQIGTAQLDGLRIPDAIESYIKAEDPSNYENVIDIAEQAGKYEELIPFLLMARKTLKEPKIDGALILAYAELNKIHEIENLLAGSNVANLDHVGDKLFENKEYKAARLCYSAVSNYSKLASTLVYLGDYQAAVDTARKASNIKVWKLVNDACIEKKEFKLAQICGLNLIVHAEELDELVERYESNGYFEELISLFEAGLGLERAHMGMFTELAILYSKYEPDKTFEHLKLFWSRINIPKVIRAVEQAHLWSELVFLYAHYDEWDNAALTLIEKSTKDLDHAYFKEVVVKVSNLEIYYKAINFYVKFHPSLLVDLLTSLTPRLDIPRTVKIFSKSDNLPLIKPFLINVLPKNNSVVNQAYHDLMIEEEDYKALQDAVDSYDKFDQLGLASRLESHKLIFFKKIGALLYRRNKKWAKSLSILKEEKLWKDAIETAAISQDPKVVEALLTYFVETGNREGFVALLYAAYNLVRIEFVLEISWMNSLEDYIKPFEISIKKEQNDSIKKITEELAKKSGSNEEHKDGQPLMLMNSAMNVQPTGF

[3] = target: T2, Chc-mScarlet Clathrin and W box mutant (Cla+W) (Saccharomyces cerevisiae, UniProt P22137 1-1653, F26A | K63E | I87D | Q89A | K98E | Q155A); assay: as above; settings: partners not purified
T2 construct: Clathrin heavy chain, Saccharomyces cerevisiae, the ORF of CHC1 fused in the 3' with mScarlet, Clathrin and W box mutant; source: S. cerevisiae MK100, mutated plasmid pRS315-5'UTR CHC-mScarlet, endogenous CHC1 knocked out, in living cells; not shown: mScarlet, C-terminal, kept
T2 sequence (P22137 whole entry F26A/K63E/I87D/Q89A/K98E/Q155A, the tested form may be a part): as the sequence (P22137 whole entry K63E/I87D/Q89A/K98E, the tested form may be a part) above, with F26A, Q155A counted along it

[4] = target: T3, Chc-mScarlet Clathrin and Arrestin box mutant (Cla+Arr) (Saccharomyces cerevisiae, UniProt P22137 1-1653, K63E | I87D | Q89A | K98E | Q195A | I197T | K251E); assay: as above; settings: partners not purified
T3 construct: Clathrin heavy chain, Saccharomyces cerevisiae, the ORF of CHC1 fused in the 3' with mScarlet, Clathrin and Arrestin box mutant; source: S. cerevisiae MK100, mutated plasmid pRS315-5'UTR CHC-mScarlet, endogenous CHC1 knocked out, in living cells; not shown: mScarlet, C-terminal, kept
T3 sequence (P22137 whole entry K63E/I87D/Q89A/K98E/Q195A/I197T/K251E, the tested form may be a part): as the sequence (P22137 whole entry K63E/I87D/Q89A/K98E, the tested form may be a part) above, with Q195A, I197T, K251E counted along it

[5] = target: T4, Clathrin heavy chain fused to mScarlet (Chc-mScarlet), wild type (Saccharomyces cerevisiae, UniProt P22137 1-1653); assay: as above; settings: partners not purified
T4 construct: Clathrin heavy chain, Saccharomyces cerevisiae, the ORF of CHC1 fused in the 3' with mScarlet; also called Chc1-mScarlet; ScCHC-mScarlet; not shown: mScarlet, C-terminal, kept
T4 sequence (P22137 whole entry, the tested form may be a part): as the sequence (P22137 whole entry K63E/I87D/Q89A/K98E, the tested form may be a part) above, with E63K, D87I, A89Q, E98K counted along it

[6] = target: T5, Chc-mScarlet Clathrin, Arrestin and W box mutant (Cla+Arr+W) (Saccharomyces cerevisiae, UniProt P22137 1-1653, F26A | K63E | I87D | Q89A | K98E | Q155A | Q195A | I197T | K251E); assay: as above; settings: partners not purified
T5 construct: Clathrin heavy chain, Saccharomyces cerevisiae, the ORF of CHC1 fused in the 3' with mScarlet, Clathrin, Arrestin and W box mutant; also called triple mutant; source: S. cerevisiae MK100, mutated plasmid pRS315-5'UTR CHC-mScarlet, endogenous CHC1 knocked out, in living cells; not shown: mScarlet, C-terminal, kept
T5 sequence (P22137 whole entry F26A/K63E/I87D/Q89A/K98E/Q155A/Q195A/I197T/K251E, the tested form may be a part): as the sequence (P22137 whole entry K63E/I87D/Q89A/K98E, the tested form may be a part) above, with F26A, Q155A, Q195A, I197T, K251E counted along it

B1: Ent1 endogenously tagged with mNeonGreen (Ent1-mNeonGreen) (natural protein, UniProt Q12518 1-454, looked up)
chain: MSKQFVRSAKNLVKGYSSTQVLVRNATSNDNHQVSKDSLIELAEKSYDSADFFEIMDMLDKRLNDKGKYWRHIAKALTVIDYLIRFGSENCVLWCRENLYIIKTLKEFRHEDDEGIDQGQIVRVKAKELTALLSDDERLNEERNMNIKGRNRKGRRRRGTGRSDENDDDLQRAISASRLTAEEDERRRKQDEDYETALQLSKEEEELKRLQDLQRMQQQQGQQQLQQPMYYDIFGNPITPEEYAQFQLQQQQQQQQQQLQQQPMYYDVFGNPITPEELAQFQQQQQLQEQQYLASMQQQQQAMSNNPFAKSEQSSSSPKRNQLVAASSPQQLQQQKQQEPLIQNRTGNQSMTDKYSKLNELLATGTGIDTFGNVGEARIPAQHTKTGTFINSQGTGYRQVSDDPNHNPFLNSQYTGLPSTSVVPTQTGYGFGNQSQQQSQNNGSNNRGYTLIDL
notes: epsin Ent1, Saccharomyces cerevisiae, endogenous locus tagged with mNeonGreen; also called Ent1p; source: endogenously tagged, S. cerevisiae MK100, in living cells
- Frequency of ABP+ (Abp1-positive) endocytic events, Average [1]: 33.3
- FRET efficiency [2]: ~5%
- FRET efficiency [3]: 5.93%
- FRET efficiency [4]: 5.25%
- FRET efficiency [5]: ~8%
- FRET efficiency [6]: 4.66%
